Results reported in paper PMC4597782 (Nature, 2015).

Biological target: the molecule itself
Test: single-molecule pull-down

B1: mGluR2-GFP (receptor)
chain: EGPAKKVLTLEGDLVLGGLFPVHQKGGPAEECGPVNEHRGIQRLEAMLFALDRINRDPHLLPGVRLGAHILDSCSKDTHALEQALDFVRASLSRGADGSRHICPDGSYATHSDAPTAVTGVIGGSYSDVSIQVANLLRLFQIPQISYASTSAKLSDKSRYDYFARTVPPDFFQAKAMAEILRFFNWTYVSTVASEGDYGETGIEAFELEARARNICVATSEKVGRAMSRAAFEGVVRALLQKPSARVAVLFTRSEDARELLAATQRLNASFTWVASDGWGALESVVAGSERAAEGAITIELASYPISDFASYFQSLDPWNNSRNPWFREFWEERFHCSFRQRDCAAHSLRAVPFEQESKIMFVVNAVYAMAHALHNMHRALCPNTTHLCDAMRPVNGRRLYKDFVLNVKFDAPFRPADTDDEVRFDRFGDGIGRYNIFTYLRAGSGRYRYQKVGYWAEGLTLDTSFIPWASPSAGPLPASRCSEPCLQNEVKSVQPGEVCCWLCIPCQPYEYRLDEFTCADCGLGYWPNASLTGCFELPQEYIRWGDAWAVGPVTIACLGALATLFVLGVFVRHNATPVVKASGRELCYILLGGVFLCYCMTFVFIAKPSTAVCTLRRLGLGTAFSVCYSALLTKTNRIARIFGGAREGAQRPRFISPASQVAICLALISGQLLIVAAWLVVEAPGTGKETAPERREVVTLRCNHRDASMLGSLAYNVLLIALCTLYAFKTRKCPENFNEAKFIGFTMYTTCIIWLAFLPIFYVTSSDYRVQTTTMCVSVSLSGSVVLGCLFAPKLHIILFQPQKNVVSHRAPTSRFGSAAPRASANLGQGSGSQFVPTVCNGREVVDSTTSSL
stoichiometry N: 2
